Laboratory results reported in patent US6391584B1, “Expression-cloning method for identifying target proteins for eukaryotic tyrosine kinases and novel target proteins” (New York University Medical Center, priority 1991, dated 2002).

Experiments:
[1] = tested on: GRB2 phosphorylation in HER14 cells; experiment: GRB2 phosphorylation in (32P) orthophosphate-labelled, EGF stimulated HER14 cells; type: cell-based; conditions: vanadate (200 μM) at 37° C. for 20 min prior to the addition of EGF
Protocol: Labeling cells with (^32P)-orthophosphate were carried out as previously described (Li et al., Mol. Biol. Cell 2:641-649, 1991). Briefly, confluent HER14 cells starved for 16 hrs in 1% FCS/DMEM were incubated for two hours in Pi-free media, and labeled for two hours in Pi-free media, dialyzed FBS, 1 mCi/ml orthophosphate (carrier free, 314.5-337.5 TBq/mmole, purchased form NEN, Wilmington, Del.) at 37° C. Where appropriate, cells were incubated with vanadate (200 μM) at 37° C. for the last 20 minutes of cell labeling. Cells were then stimulated for two minutes with EGF (250 ng/ml) or PDGF (50 ng/ml), rapidly washed 2 times with ice cold phosphate-buffered saline (PBS), and solubilized immediately in lysis buffer (10 mM Tris-Cl pH 7.6, 50 mM NaCl, […] sodium pyrophosphate, 50 mM sodium fluoride, 100 μM sodium orthovanadate, 5 μM ZnCl2, 1 mM PMSF and 0.5% Triton-X-100). […]
To determine if the failure to detect tyrosine phosphorylated GRB2 was due to the rapid dephosphorylation by a protein tyrosine phosphatase, a potent tyrosine phosphatase inhibitor, vanadate, was tested for its effects upon GRB2 phosphorylation. (^32p) orthophosphate-labelled cells were incubated with or without vanadate at 37° C. for 20 min prior to the addition of EGF, and GRB2 phosphorylation was assessed as described above.

[2] = biological target: trpE/GAP SH2 fusion protein (GAP residues 171-448) (UniProt P00895); experiment: filter binding: 32P-labelled probe on fusion protein spotted on nitrocellulose
[3] = biological target: tyrosine phosphorylated wild-type EGF receptor, full length (human) (UniProt P00533); experiment: immunoprecipitated autophosphorylated EGFR, anti-PLC-γ blot with 125I-protein A, bands counted
EGFR-C = biological target: T1, EGFR-C (Homo sapiens, UniProt P00533); experiment: Binding of trpE/GAP SH2 fusion protein to baculovirus expressed EGFR-C (immunoprecipitation / immunoblot); conditions: phosphorylated vs non-phosphorylated EGFR-C, FIG. 12A
T1 construct: EGFR-C represents a deletion mutant containing the cytoplasmic domain of the EGF receptor produced by baculovirus-infected SF9 cells; made in house; host or cells: baculovirus-infected SF9 insect cells
Protocol: FIGS. 12A and 12B are representations of a gel pattern showing binding of EGFR-C to trpE proteins. In FIG. 12A, EGFR-C (0.5 μg) was immunoprecipitated with antibody C and washed. MnCl2 alone or MnCl2 and ATP were then added to facilitate autophosphorylation of TrpE or trpE/GAP SH2 (approximately 2 μg). The immunoprecipitates were separated on a 10% SDS-gel, transferred to nitrocellulose and immunoblotting was performed with anti-trpE. For comparison, about 0.1 μg of trpE or trpE/GAP SH2 lysate was loaded directly on to the gel (right panel of 12A). In FIG. 12B, trpE or trpE/GAP SH2 was immunoprecipitated with anti-trpE antibodies and washed. Phosphorylated or non-phosphorylated EGFR-C (0.5 μg) was then added and allowed to bind as above. After washing, samples were separated on a 10% gel, transferred to nitrocellulose and probed with antibody C. The two samples on the right represent 0.5 μg of phosphorylated and non-phosphorylated kinase loaded directly onto the gel (exposure time: 2 h). The preparation of trpE fusion proteins containing the GAP SH2 domain (GAP residues 171-448, 10 FIG. 9B) has been described by Moran, M. F. et al., Proc. Natl. Acad. Sci. USA 87: 8622-8626 (1990). Bacterial lysates containing trpE/GAP SH2 fusion proteins were prepared by resuspending 1 g of bacteria in 3 ml of 50 mM Tris pH 7.5, 0.5 mm EDTA, 0.1 mm PMSF. […]

[4] = biological target: T2, tyrosine phosphorylated EGFR-C (intracellular domain of the EGF receptor, baculovirus expressed) (human, UniProt P00533 669-1210, tyrosine autophosphorylated with MnCl2 and ATP; positions not given); experiment: EGFR-C immunoprecipitated with antibody C, anti-trpE immunoblot
T2 construct: domain: intracellular domain; Produced in baculovirus-infected SF9 cells; also called EGFR cytoplasmic domain; phosphorylated kinase
Protocol: In FIG. 12A, EGFR-C (0.5 μg) was immunoprecipitated with antibody C and washed. […] The immunoprecipitates were separated on a 10% SDS-gel, transferred to nitrocellulose and immunoblotting was performed with anti-trpE. […] Phosphorylated or non-phosphorylated EGFR-C (0.5 μg) was then added and allowed to bind as above. After washing, samples were separated on a 10% gel, transferred to nitrocellulose and probed with antibody C. The two samples on the right represent 0.5 μg of phosphorylated and non-phosphorylated kinase loaded directly onto the gel (exposure time: 2 h).

With `[O]=[V]([O-])([O-])[O-]` [Vanadate, vanadate] the “effect on GRB2 phosphorylation” value [1] was “did not result in detectable GRB2 phosphorylation”.

In the case of “tyrosine phosphorylated C-terminal CNBr fragment of the EGF receptor (EGFR 984/1186) (from UniProt P00533 1008-1210)”, the amount of spotted fusion protein at which binding was still detected [2] is reported as less than 5 ng.

Work on “PLC-γ (phosphatidylinositol specific phospholipase C-γ), non-phosphorylated, from 3TP1 cell lysate (enzyme)” yielded a percent remaining bound after three washes with HNTG [3] of 50%.

B1: trpE/GAP SH2 fusion protein: bacterially expressed trpE fusion protein containing the GAP SH2 domain (GAP residues 171-448) (protein)
chain: MQTQKPTLELLTCEGAYRDNPTALFHQLCGDRPATLLLESADIDSKDDLKSLLLVDSALRITALGDTVTIQALSGNGEALLALLDNALPAGVESEQSPNCRVLRFPPVSPLLDEDARLCSLSVFDAFRLLQNLLNVPKEEREAMFFGGLFSYDLVAGFEDLPQLSAENNCPDFCFYLAETLMVIDHQKKSTRIQASLFAPNEEEKQRLTARLNELRQQLTEAAPPLPVVSVPHMRCECNQSDEEFGGVVRLLQKAIRAGEIFQVVPSRRFSLPCPSPLAAYYVLKKSNPSPYMFFMQDNDFTLFGASPESSLKYDATSRQIEIIPLTAPPTNQWYHGKLDRTIAEERLRQAGKSGSYLIRESDRRPGSFVLSFLSQMNVVNHFRIIAMCGDYYIGGRRFSSLSDLIGYYSHVSCLLKGEKLLYPVAPPEPVEDRRRVRAILPYTKVPDTDEISFLKGDMFIVHNELEDGWMWVTNLRTDEQGLIVEDLVEEVGREEDPHEGKIWFHGKISKQEAYNLLMTVGQVCSFLVRPSDNTPGDYSLYFRTNENIQRFKICPTPNNQFMMGGRYYNSIGDIIDHYRKEQIVEGYYLKEPVPMQDQEQ
For B1, the “binding to EGFR-C” value (EGFR-C) was “bound only to the tyrosine phosphorylated EGFR-C”.

B2: trpE protein alone (other, UniProt P00895 1-323, looked up)
chain: MQTQKPTLELLTCEGAYRDNPTALFHQLCGDRPATLLLESADIDSKDDLKSLLLVDSALRITALGDTVTIQALSGNGEALLALLDNALPAGVESEQSPNCRVLRFPPVSPLLDEDARLCSLSVFDAFRLLQNLLNVPKEEREAMFFGGLFSYDLVAGFEDLPQLSAENNCPDFCFYLAETLMVIDHQKKSTRIQASLFAPNEEEKQRLTARLNELRQQLTEAAPPLPVVSVPHMRCECNQSDEEFGGVVRLLQKAIRAGEIFQVVPSRRFSLPCPSPLAAYYVLKKSNPSPYMFFMQDNDFTLFGASPESSLKYDATSRQIEI
notes: Control for the trpE/GAP SH2 fusion; also called bacterial protein alone
B2: no binding [4].

B3: trpe protein: bacterial trpE protein alone, used as control for the fusion protein (protein)
chain: MQTQKPTLELLTCEGAYRDNPTALFHQLCGDRPATLLLESADIDSKDDLKSLLLVDSALRITALGDTVTIQALSGNGEALLALLDNALPAGVESEQSPNCRVLRFPPVSPLLDEDARLCSLSVFDAFRLLQNLLNVPKEEREAMFFGGLFSYDLVAGFEDLPQLSAENNCPDFCFYLAETLMVIDHQKKSTRIQASLFAPNEEEKQRLTARLNELRQQLTEAAPPLPVVSVPHMRCECNQSDEEFGGVVRLLQKAIRAGEIFQVVPSRRFSLPCPSPLAAYYVLKKSNPSPYMFFMQDNDFTLFGASPESSLKYDATSRQIEI
In the case of B3, the “binding to EGFR-C” value (EGFR-C) is reported as “did not bind”.
